Patent US20220041674A1 (published 2022)
Non-standard residues stand in square brackets, D forms with d. Nal = naphthylalanine

Tests used:
[1] = biological target: human chemokine receptor 4 (CXCR4) (human) (UniProt P61073); test: competitive radioligand binding on Jurkat cells (400.000 cells/sample), [125I]FC-131
[2] = biological target: human chemokine receptor 4 (CXCR4) (human) (UniProt P61073); test: competitive radioligand binding on Jurkat cells, [125I]FC131 0.1 nM, 2 h RT
[3] = biological target: human chemokine receptor 4 (CXCR4) (human) (UniProt P61073); test: cell-based or functional assay
[4] = biological target: T1, murine chemokine receptor 4 (CXCR4) (murine, UniProt P70658 1-359); test: competitive radioligand binding on Eµ-Myc1080 mouse B-cell lymphoma cells, [125I]CPCR4.3
T1 construct: whole, on cells; receptor present on whole cells; also called mCXCR4; mouse CXCR4
T1 sequence (P70658 whole entry): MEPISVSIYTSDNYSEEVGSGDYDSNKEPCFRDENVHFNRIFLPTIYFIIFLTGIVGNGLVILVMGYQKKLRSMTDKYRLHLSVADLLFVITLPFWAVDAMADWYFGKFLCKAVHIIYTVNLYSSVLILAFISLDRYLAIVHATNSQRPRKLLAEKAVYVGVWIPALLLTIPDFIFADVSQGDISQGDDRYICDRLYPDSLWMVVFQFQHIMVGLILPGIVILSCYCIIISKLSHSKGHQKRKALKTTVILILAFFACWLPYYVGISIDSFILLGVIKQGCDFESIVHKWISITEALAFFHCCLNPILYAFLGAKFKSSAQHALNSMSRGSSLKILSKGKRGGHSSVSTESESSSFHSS

Chain of human chemokine receptor 4 (CXCR4) (human) (P61073 whole entry): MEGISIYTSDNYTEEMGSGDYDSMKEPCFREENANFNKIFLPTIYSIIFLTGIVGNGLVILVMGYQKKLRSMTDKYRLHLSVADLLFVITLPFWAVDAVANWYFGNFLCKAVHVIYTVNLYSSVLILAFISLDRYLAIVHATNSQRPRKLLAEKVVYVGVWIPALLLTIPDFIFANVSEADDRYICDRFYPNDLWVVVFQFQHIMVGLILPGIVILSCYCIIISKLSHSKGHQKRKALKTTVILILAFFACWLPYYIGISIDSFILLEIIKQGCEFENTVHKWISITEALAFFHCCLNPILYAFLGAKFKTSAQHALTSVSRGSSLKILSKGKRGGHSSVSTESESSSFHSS

| Molecule | IC50 [1] [nM] | IC50 [2] [nM] | further results |
| --- | --- | --- | --- |
| cyclo[i-yorn′(AMBF3(methyl(1H-1,2,3-triazol-4-yl)4-amino)benzoyl-)RNaIG] (F1) (peptide) | 134 | – | – |
| cyclo[yorn′([natGa]DOTA-rG-(4-amino)benzoyl-)RNaIG ([natGa]P4b) (peptide) | 9.7 | 9.7 | – |
| cyclo[i-yorn′([natLu]DOTA-ra-(4-amino)benzoyl-)RNaIG ([natLu]P5) (peptide) | – | – | specific internalized activity (hCXCR4+ Chem 1 cells, 37 °C, 1.0 nM peptide, 60 min) [3]: 36.7% |
| ^natLu-pentixather, natLu complex of cyclo(D-3-iodo-Tyr1-D-[NMe]Orn2(AMBS-DOTA)-Arg3-Nal4-Gly5) (peptide) | – | – | specific internalized activity (hCXCR4+ Chem 1 cells, 37 °C, 1.0 nM peptide, 60 min) [3]: 3.8% |
| cyclo[i-yorn′([natY]DOTA-kG-(4-amino)benzoyl-)RNaIG ([natY]P3) (peptide) | 2.4 | – | – |
| cyclo[yorn′([natLu]DOTA-kG-(4-amino)benzoyl-)RNaIG ([natLu]P3b) (peptide) | 8 | 8 | – |
| ^natGa-pentixafor, natGa complex of cyclo(D-Tyr1-D-[NMe]Orn2(AMBS-DOTA)-Arg3-Nal4-Gly5) (peptide) | – | 24.8 | – |
| cyclo[-yorn′(AMBF3(methyl(1H-1,2,3-triazol-4-yl)-rG-4-amino)benzoyl-)RNaIG] (F3b) (peptide) | 2.4 | – | – |
| cyclo[i-yorn′(AMBF3(methyl(1H-1,2,3-triazol-4-yl)-vG-4-amino)benzoyl-)RNaIG] (F2) (peptide) | 65.2 | – | – |
| cyclo[yorn′([natLu]DOTA-rG-(4-amino)benzoyl-)RNaIG ([natLu]P4b) (peptide) | 5.4 | 5.4 | – |
| cyclo[yorn′([natLu]DOTA-ra-(4-amino)benzoyl-)RNaIG ([natLu]P5b) (peptide) | – | – | specific internalized activity (hCXCR4+ Chem 1 cells, 37 °C, 1.0 nM peptide, 60 min) [3]: 21.2% |
| cyclo[yorn′([natY]DOTA-ra-(4-amino)benzoyl-)RNaIG ([natY]P5b) (peptide) | 0.3 | – | – |
| cyclo[i-yorn′([natY]DOTA-dapG-(4-amino)benzoyl-)RNaIG ([natY]P2) (peptide) | 4.1 | – | – |
| cyclo[yorn′([natY]DOTA-kG-(4-amino)benzoyl-)RNaIG ([natY]P3b) (peptide) | 6.3 | – | – |
| ^natLu-pentixafor, natLu complex of cyclo(D-Tyr1-D-[NMe]Orn2(AMBS-DOTA)-Arg3-Nal4-Gly5) (peptide) | – | 41 | – |
| cyclo[yorn′([natY]DOTA-rG-(4-amino)benzoyl-)RNaIG ([natY]P4b) (peptide) | 8.7 | – | – |
| cyclo[i-yorn′([natLu]DOTA-d-(4-amino)benzoyl-)RNaIG ([natLu]P1) (peptide) | 106 | 106 | – |
| cyclo[i-yorn′([natBi]DOTA-kG-(4-amino)benzoyl-)RNaIG ([natBi]P3) (peptide) | 38 | – | – |
| cyclo[yorn′([natGa]DOTA-kG-(4-amino)benzoyl-)RNaIG ([natGa]P3b) (peptide) | 8.9 | 8.9 | – |
| cyclo[i-yorn′([natGa]DOTA-dapG-(4-amino)benzoyl-)RNaIG ([natGa]P2) (peptide) | 3.6 | 3.6 | – |
| cyclo[i-yorn′(AMBF3(methyl(1H-1,2,3-triazol-4-yl)-kG-4-amino)benzoyl-)RNaIG] (F4) (peptide) | 3.8 | – | – |
| cyclo[i-yorn′([natLu]DOTA-kG-(4-amino)benzoyl-)RNaIG ([natLu]P3) (peptide) | 3.6 | 3.6 | – |
| cyclo[yorn′([natGa]DOTA-ra-(4-amino)benzoyl-)RNaIG ([natGa]P5b) (peptide) | 0.4 | 0.4 | – |
| cyclo[i-yorn′([natGa]DOTA-kG-(4-amino)benzoyl-)RNaIG ([natGa]P3) (peptide) | 2.4 | 2.4 | – |
| cyclo([dY]RR[Nal]G) (stands under the natLu column heads although it carries no chelator; also called cyclo(Gly-Nal-Arg-Arg-D-Tyr)) [FC131, c[yRRNaIG] (R2)] | – | – | IC50 [4]: 119 nM |
